Tests used:
[1] = target: T1, human proprotein convertase subtilisin kexin type 9 (self-cleaved, mature, secreted PCSK9) (human, UniProt Q8NBP7 31-692); experiment: solution equilibrium binding assay on BIAcore, pH 5.5
T1 construct: Self-cleavage means the pro-domain and the catalytic/C-terminal part are separate, associated polypeptides; also called huPCSK9; wild-type PCSK9
Protocol: (§1) Binding of anti-PCSK9 antibodies to human and cynomolgus monkey PCSK9 was measured by solution equilibrium binding assay on BIAcore. Antibody was immobilized on the second flow cell of a CM5 chip using amine coupling (reagents provided by GE Healthcare, Piscataway, N.J.) with an approximate density of 6000 RU. The first flow cell was used as a background control. For assay at pH 7.4, 0.1 nM or 1.0 nM of PCSK9 were mixed with serial dilutions of antibody (ranging from 0.003 nM to 50 nM) in PBS plus 0.1 mg/mL BSA, 0.005% P20 and incubated at room temperature for 4 hours. For assay at pH 5.5, 0.1 nM or 1.0 nM of PCSK9 were mixed with serial dilutions of antibody (ranging from 0.003 nM to 50 nM) in 10 mM Sodium Citrate, pH 5.5, plus 150 mM NaCl, 0.1 mg/mL BSA, 0.005% P20 and incubated at room temperature for 4 hours. Binding of free PCSK9 in the mixed solutions was measured by injecting over the antibody coated chip surface. One hundred percent PCSK9 binding signal on the antibody surface was determined in the absence of antibody in the solution. A decreased PCSK9 binding response with increasing concentrations of antibody in solution indicated PCSK9 was binding to the antibody, preventing PCSK9 from binding to the immobilized antibody surface. Plotting the PCSK9 binding signal versus antibody concentration, the KD was obtained from nonlinear regression of the competition curves using an n-curve one-site homogeneous binding model provided in the KinExA Pro software.

cynomolgus PCSK9 [2] = target: T2, cynomolgus PCSK9 (cynomolgus monkey, UniProt A8T662 31-692 (Macaca nemestrina entry), limits assumed); experiment: as above
T2 construct: also called cyPCSK9; cynomolgus monkey PCSK9
T2 sequence (A8T662 31-692 K611R limits assumed): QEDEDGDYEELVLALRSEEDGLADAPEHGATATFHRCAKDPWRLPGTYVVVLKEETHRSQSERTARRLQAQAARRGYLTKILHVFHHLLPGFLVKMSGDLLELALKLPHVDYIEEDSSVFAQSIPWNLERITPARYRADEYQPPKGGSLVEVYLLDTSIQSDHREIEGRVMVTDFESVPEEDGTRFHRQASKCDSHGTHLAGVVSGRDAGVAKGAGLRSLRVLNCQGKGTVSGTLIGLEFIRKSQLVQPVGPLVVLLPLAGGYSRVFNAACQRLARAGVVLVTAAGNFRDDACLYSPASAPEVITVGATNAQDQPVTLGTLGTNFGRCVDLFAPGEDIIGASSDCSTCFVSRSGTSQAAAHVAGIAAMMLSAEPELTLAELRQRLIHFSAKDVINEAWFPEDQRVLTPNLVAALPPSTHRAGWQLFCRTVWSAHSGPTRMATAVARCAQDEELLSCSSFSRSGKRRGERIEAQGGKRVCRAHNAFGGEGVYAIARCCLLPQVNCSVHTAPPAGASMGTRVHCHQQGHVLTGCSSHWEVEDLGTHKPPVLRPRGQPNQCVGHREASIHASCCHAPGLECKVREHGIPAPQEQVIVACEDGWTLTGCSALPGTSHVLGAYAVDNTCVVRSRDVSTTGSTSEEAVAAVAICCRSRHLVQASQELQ
Protocol: as §1

[3] = target: T1, human proprotein convertase subtilisin …; experiment: solution equilibrium binding assay on BIAcore, pH 7.4
Protocol: as §1

cynomolgus PCSK9 [4] = target: T2, cynomolgus PCSK9; experiment: as above
Protocol: as §1

[5] = target: T1, human proprotein convertase subtilisin …; experiment: ELISA, hybridoma supernatant on neutravidin-captured biotinylated PCSK9
Protocol: A primary screen for antibodies which bind to wild-type PCSK9 was performed. The primary screen was performed on two harvests. The primary screen comprised an ELISA assay and was performed using the following protocol:
The plates were coated with neutravadin at a concentration of 4 μg/ml in 1×PBS/0.05% Azide, at a volume of 40 μl/well. The plates were incubated at 4° C. overnight. The plates were then washed using a Titertek plate washer (Titertek, Huntsville, Ala.). A 3-cycle wash was performed. The plates were blocked with 90 μl of 1×PBS/1% milk and incubated approximately 30 minutes at room temperature. The plates were then washed. Again, a 3-cycle wash was performed. The capture sample was biotinylated-PCSK9, and was added at 0.9 μg/ml in 1×PBS/1% milk/10 mM Ca²⁺ at a volume of 40 μl/well. The plates were then incubated for 1 hour at room temperature. Next, the plates were washed using the Titertek plate washer operated using a 3-cycle wash. 10 μl of supernatant was transferred into 40 μl of 1×PBS/1% milk/10 mM Ca²⁺ and incubated 1.5 hours at room temperature. Again the plates were washed using the Titertek plate washer operated using a 3-cycle wash. 40 μl/well of Goat anti-Human IgG Fc HRP at a concentration of 100 ng/ml (1:4000) in 1λ PBS/1% milk/10 mM Ca²⁺ was added to the plate and was incubated 1 hour at room temperature. The plates were washed once again, using a 3-cycle wash. Finally, 40 μl/well of One-step TMB (Neogen, Lexington, Ky.) was added to the plate and quenching with 40 μl/well of 1N hydrochloric acid was performed after 30 minutes at room temperature. OD's were read immediately at 450 nm using a Titertek plate reader. Positive binding was determined as 3 times the average of signal of the negative control which was hybridoma supernatant.

[6] = target: T1, human proprotein convertase subtilisin …; experiment: competition ELISA, supernatant pre-incubated with b-PCSK9; competitor 26H5 coated on plate
Protocol: (§2) Hybridoma supernatants were then assayed for direct binding competition. […] The next day each hybridoma supernatant was preincubated with 100 ng/ml b-PCSK9 at a 1:5 final dilution. These samples were then incubated for 2 hours at RT. The precoated antibody capture plates were then washed and the pre-incubated samples of hybridoma Antibody supernatants and B-PCSK9 were added to the plates and incubated for 1 hour at room temperature. Detection of bound b-PCSK9 was done with streptavidin HRP (Thermo P21126) at 500 ng/ml in 1×PBS/1% non fat skim milk. Incubated for 1 hour then added chromogenic substrate TMB, 3,3′,5,5′-tetramethylbenzidine, 40 ul/well incubated anywhere from 15 minutes to 60 minutes depending on OD then stopped with one molar hydrochloric acid. Optical density at 450 nm read on Multiskan Ascent reader. A % Inhibition was then calculated by comparing the amount of bound b-PCSK9 after preincubation with anti-PCSK9 hybridoma sups versus negative control wells using irrelevant hybridoma supernatants. % Inhibition=1−(OD of Ab supernatant/B-PCSK9/OD of Neg. control supernatant/B-PCSK9).

[7] = target: T1, human proprotein convertase subtilisin …; experiment: competition ELISA, supernatant pre-incubated with b-PCSK9; competitor 31H4 coated on plate
Protocol: as §2

human D374Y PCSK9 mutant = target: T3, human D374Y PCSK9 mutant (human, UniProt Q8NBP7 31-692, limits assumed); experiment: receptor-ligand blocking ELISA: supernatant pre-incubated with biotinylated D374Y PCSK9, binding to captured LDLR
T3 construct: It was biotinylated in the assay; also called biotinylated human D374Y PCSK9
T3 sequence (Q8NBP7 other isoform, or with tags, fused parts or gaps D374Y D374Y limits assumed): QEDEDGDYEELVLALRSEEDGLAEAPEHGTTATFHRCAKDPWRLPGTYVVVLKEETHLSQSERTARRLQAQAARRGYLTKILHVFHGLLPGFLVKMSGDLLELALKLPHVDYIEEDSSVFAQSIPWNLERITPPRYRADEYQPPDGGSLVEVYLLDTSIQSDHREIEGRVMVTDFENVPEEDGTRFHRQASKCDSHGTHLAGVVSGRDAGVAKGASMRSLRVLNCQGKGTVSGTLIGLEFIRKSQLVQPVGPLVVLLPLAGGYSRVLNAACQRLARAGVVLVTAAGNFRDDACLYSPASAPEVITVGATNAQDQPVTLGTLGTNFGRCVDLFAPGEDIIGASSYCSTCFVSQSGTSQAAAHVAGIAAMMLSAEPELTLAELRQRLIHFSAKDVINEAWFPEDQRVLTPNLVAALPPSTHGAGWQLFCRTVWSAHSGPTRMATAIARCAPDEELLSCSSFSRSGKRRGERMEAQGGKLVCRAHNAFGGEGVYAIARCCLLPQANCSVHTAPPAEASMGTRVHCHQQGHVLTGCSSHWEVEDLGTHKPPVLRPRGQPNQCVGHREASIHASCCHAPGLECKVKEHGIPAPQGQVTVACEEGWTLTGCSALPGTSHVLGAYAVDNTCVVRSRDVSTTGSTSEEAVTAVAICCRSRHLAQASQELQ
Protocol: The plates were coated with goat anti-LDLR (R&D Cat #AF2148) at 2 μg/ml in 1λPBS/0.05% Azide at a volume of 40 μl/well. The plates were incubated at 4° C. overnight. The plates were then washed using a Titertek plate washer (Titertek, Huntsville, Ala.). A 3-cycle wash was performed. The plates were blocked with 90 μl of 1λ PBS/1% milk and incubated approximately 30 minutes at room temperature. The plates were then washed using the Titertek plate washer. A 3-cycle wash was performed. […] The plates were then incubated for 1 hour and 10 minutes at room temperature. […] The plates were then pre-incubated for about 1 hour and 30 minutes at room temperature. Next, the plates were washed using the Titertek plate washer operated using a 3-cycle wash. 50 μl/well of the pre-incubated mixture was transferred onto the LDLR coated ELISA plates and incubated for 1 hour at room temperature. To detect LDLR-bound b-PCSK9, 40 μl/well streptavidin HRP at 500 ng/ml in assay diluent was added to the plates. The plates were incubated for 1 hour at room temperature. The plates were again washed using a Titertek plate washer. A 3-cycle wash was performed. Finally, 40 μl/well of One-step TMB (Neogen, Lexington, Ky.) was added to the plate and was quenched with 40 μl/well of 1N hydrochloric acid after 30 minutes at room temperature. OD's were read immediately at 450 nm using a Titertek plate reader.

T1 sequence (Q8NBP7 other isoform, or with tags, fused parts or gaps): as the sequence (Q8NBP7 other isoform, or with tags, fused parts or gaps D374Y D374Y limits assumed) above, with Y344D counted along it

| Kd [1] [nM] | Kd (cynomolgus PCSK9 [2]) [nM] | Kd [3] [pM] | Kd (cynomolgus PCSK9 [4]) [nM] | Early primary screen OD [5] | Late primary screen OD [5] | % inhibition of 26H5 Binding [6] [%] | % inhibition of 31H4 Binding [7] [%] | % R-L Inhibition (human D374Y PCSK9 mutant) [%] | Binder |
| --- | --- | --- | --- | --- | --- | --- | --- | --- | --- |
| 0.016 | 0.008 | 6 | 0.008 | 3.45 OD (450 nm) | 3.91 OD (450 nm) | 92 | 82 | 94 | 101F7 (antibody, human IgG2, lambda, V domains shown, Fully human XenoMouse antibody; also called L1/H1; VL1/VH1) VH: QVQLVQSGAEVKKPGASVKVSCKASGYTFSSYGISWVRQAPGQGLEWMGWISAYNGNTNYAQKFQGRVTMTTDTSTSTAYMELRSLRSDDTAVYYCAREVRLAARPDHYYGMDVWGQGTTVTVSS VL: QSVLTQPPSVSAAPGQKVTISCSGSSSNIGINYVSWYQLLPGTAPKLLIYDNNKRPLGIPDRFSGSKSGTSATLGITGLQTGDETDYYCGTWDSSLSAWVFGGGTKLTVLG |
| 0.018 | 0.022 | 7 | 0.011 | 4.03 OD (450 nm) | 3.46 OD (450 nm) | 90 | 79 | 93 | 103B7 (antibody, human IgG2, lambda, V domains shown, Fully human XenoMouse antibody; also called L2/H2; VL2/VH1) VH: QVQLVQSGAEVKKPGASVKVSCKASGYTFSSYGISWVRQAPGQGLEWMGWISAYNGNTNYAQKFQGRVTMTTDTSTSTAYMELRSLRSDDTAVYYCAREVRLAARPDHYYGMDVWGQGTTVTVSS VL: QSVLTQPPSVSAAPGQKVTISCSGSSSNIGINYVSWYQLLPGTAPKLLIYDNNKRPLGIPDRFSGSKSGTSVTLGITGLQTGDEADYFCGTWDSNLSAWVFGGGTKLTVLG |
| 0.12 | 3.1 | 67 | 1.5 | 3.3 OD (450 nm) | 3.56 OD (450 nm) | 90 | 89 | 92 | 131D12 (antibody, human IgG2, lambda, V domains shown, Fully human XenoMouse antibody; also called L3/H3; VL3/VH2) VH: QGQLVESGGGVVQPGRSLRLSCAASGFTFSSYGMHWVRQAPGKGLEWVAVIWHDGSNKYYADSVKGRFTISRDNSKNTLYLQMNSLRAEDTAVYYCARVVPDNWNQDYYGMDVWGQGTTVTVSS VL: SYELTQPPSVSVSPGQTASITCSGDKLGDKYACWFQQKPGQSPVLVIYQDSKRPFGIPDRFSGSKSGNTATLTISGTQAMEEADYYCQAWDSSTAVFGGGTKLTVLG |
| – | – | – | – | 4.9 OD (450 nm) | 4.2 OD (450 nm) | – | – | 93 | 27B2 (antibody, human IgG2, lambda, V domains shown, Fully human XenoMouse antibody; Tested as hybridoma supernatant, the VH ends '...TTVTV' without the final 'SS'; also called 27B2.6; L4/H4) VH: QVQLVESGGGVVQPGRSLRLSCAASGFTFSSYGMHWVRQAPGKGLEWVAAIWYDGSNKYYAESVKGRFTISRDNSKYTLYLQVNSLRAEDTAVYYCARRGGLAARPGGLDVWGQGTTVTVAS VL: SYELTQPPSVSVSPGQTISISCSGDKLGDKNACWYQQKPGQSPGLVIYQDSKRPLGIPARFSGSNSGNTATLTISGTQAMDEADYYCQAWDISTVVFGGGTKLTVLG |

— US20160039945A1 (Amgen, published 2016)
